According to patent publication US8697349:

These molecules were tested against Cy5-labeled Goat anti mouse IgG (AP127S, available from CHEMICON International Inc.) (goat) (assay: Cy5 fluorescence of antibody at peptide spot on AZO film after 17 h light irradiation, array scanner; reference: water instead of peptide).

| Molecule | fixability, fold over Comparative Example 1 [fold] |
| --- | --- |
| FATAIAAIAAAI [synthetic peptide FAT …] | > 10 |
| PATAIAAIAAAI [synthetic peptide PAT …] | > 10 |
| LAAAIAAIAAAI [synthetic peptide LAA …] | > 10 |
| LATAIAAIAAAI [synthetic peptide LAT …] | > 10 |
| VAAAIAAIAAAI [synthetic peptide VAA …] | > 10 |
| IAEAIAAIAAAI [synthetic peptide IAE …] | > 10 |
| IATAIAAIAAAI [synthetic peptide IAT …] | > 10 |
| FAAAIAAIAAAI [synthetic peptide FAA …] | > 10 |
| VATAIAAIAAAI [synthetic peptide VAT …] | > 10 |
| INSAIAAIAAAI [synthetic peptide INS …] | > 10 |
| WATAIAAIAAAI [synthetic peptide WAT …] | > 10 |
| IAAAIAAIAAAI [synthetic peptide IAA …] | > 10 |
| AATAIAAIAAAI [synthetic peptide AAT …] | > 10 |
| IAIAIAAIAAAI [synthetic peptide IAI …] | > 10 |
| ITTAIAAIAAAI [synthetic peptide ITT …] | > 10 |
| IPTAIAAIAAAI [synthetic peptide IPT …] | > 10 |
| IHTAIAAIAAAI [synthetic peptide IHT …] | > 10 |
| ISTAIAAIAAAI [synthetic peptide IST …] | > 10 |

The remaining lines, values ahead:

| fixability, fold over Comparative Example 1 [fold] | Molecule |
| --- | --- |
| > 10 | ATAAIAAIAAAI [synthetic peptide ATA …] |
| > 10 | ISSAIAAIAAAI [synthetic peptide ISS …] |
| > 10 | IQSAIAAIAAAI [synthetic peptide IQS …] |
| > 10 | IVSAIAAIAAAI [synthetic peptide IVS …] |
| > 10 | IAYAIAAIAAAI [synthetic peptide IAY …] |
| > 10 | IASAIAAIAAAI [synthetic peptide IAS …] |
| > 10 | ITSAIAAIAAAI [synthetic peptide ITS …] |
| > 10 | IMTAIAAIAAAI [synthetic peptide IMT …] |
| > 10 | AAAAIAAIAAAI [synthetic peptide AAA …] |
| > 10 | IGSAIAAIAAAI [synthetic peptide IGS …] |
| > 10 | IQTAIAAIAAAI [synthetic peptide IQT …] |
| > 10 | QAAAIAAIAAAI [synthetic peptide QAA …] |
| > 10 | IITAIAAIAAAI [synthetic peptide IIT …] |
| > 10 | PAAAIAAIAAAI [synthetic peptide PAA …] |

What follows are molecules tested against Cy5-labeled Goat anti mouse IgG (AP127S, available from CHEMICON International Inc.) (goat) (assay: Rabbit anti goat IgG fixed on AZO film via synthetic peptides, probed with Cy5-labeled goat IgG, array scanner; reference: antibody directly light-fixed).

| immobilized antibody activity, fold over Comparative Example 2 [fold] | Molecule |
| --- | --- |
| 3 to 30 | anti goat IgG rabbit-IgG (A50-100A, available from Bethyl Laboratories, Inc.) (antibody) |
